Measurements taken from the supplement of paper PMC10567573.

B1: HESX1 (parent)
chain: QKKDCVPLMKPHRPWADTCSSSGK
B2: CPN1 (parent)
chain: RGVRRTASTPTPDDKLFQKLAKVY

Variants of: B1
Assay: protein stability index of a GFP-peptide fusion (GPS, HEK-293T) (PSI 1-6); higher = more stable
Conditions: c terminus: a fixed tail appended
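Note: lentivirally expressed fusions sorted by FACS into six bins by GFP to DsRed ratio, PSI derived from sequencing read proportions per bin multiplied by bin number.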

Variant	protein stability index
D4T	2.49
D4L	2.38
D4V	2.17
D4F	2.61
D4Q	3.54
D4S	2.92
D4W	2.39
D4H	3.08
D4G	3.05
D4N	3.24
D4R	2.43
D4Y	2.72
D4K	2.89
D4I	3.25
D4P	2.86
D4M	2.12
D4A	2.87
D4C	2.38
C5L	3.59
C5K	2.81
C5I	2.51
C5A	3.08
C5F	3.38
C5D	3.57
C5G	2.62
C5H	3.83
C5E	4.15

Variant	protein stability index
K3H	3.66
K3V	3.47
K3P	3.62
K3D	3.81
K3C	3.27
K3N	3.67
K3I	3.01
K3L	3.42
K3T	3.13
K3M	3.53
K3A	3.52
K3W	4.36
K3S	3.69
K3Q	3.06
K3G	3.2
K3F	4.05
K3Y	3.06
K3R	2.92
K2N	3.33
K2Y	2.51
K2I	3.17
K2E	4.16
K2A	3.27
K2W	2.88
K2V	3.12
K2M	3.24
K2P	3.89

Variant	protein stability index
K2S	3.06
K2T	3.67
K2F	3.46
K2L	3.3
K2D	4.3
K2H	3.4
K2G	3.06
K2C	4.18
Q1A	2.76
Q1P	3.66
Q1K	3.06
Q1N	3.22
Q1M	3.03
Q1Y	2.45
Q1W	2.69
Q1I	3.46
Q1H	3.86
Q1S	3.49
Q1D	3.95
Q1T	3.4
Q1E	3.98
Q1F	3.17
Q1R	3.74
Q1C	2.94
Q1G	4.01
Q1L	2.01

Variants of: B2
Assay: as above
Conditions: c terminus: a fixed tail appended

Variant	protein stability index
T11L	1.52
T11G	2.54
T11W	1.92
T11N	2.23
T11F	1.92
T11M	2.03
T11V	1.67
T11R	1.82
T11K	2.56
T11Y	2.25
T11Q	2.29
T11H	2.04
T11I	1.71
T11S	1.86
L20E	3.85
L20D	4.06
L20S	3.7
L20P	3.58
L20M	2.23
L20G	3.86
L20N	3.48
L20V	3.48

Variant	protein stability index
L20C	2.56
L20K	3.68
L20Y	2.4
L20F	1.82
L20T	3.52
L20R	3.3
L20I	1.92
L20H	3.22
L20A	3.4
L20W	2.58
L20Q	3.17
P12R	1.89
P12L	1.44
P12N	1.98
P12D	2.37
P12W	2.48
P12V	1.68
P12K	2.32
P12G	2.4
P12A	2.06
P12F	2.38
P12E	3.13

Variant	protein stability index
P12T	1.81
P12I	1.89
P12C	1.65
P12Y	2.94
P12H	1.94
P12S	3.04
P12M	2.01
P12Q	2.05
D13M	2.59
D13C	1.2
D13T	1.27
D13Y	2.24
D13S	2.02
D13G	2.37
D13K	1.88
D13W	1.61
D13L	1.65
D13V	1.78
D13A	1.97
D13E	1.24
D13R	1.63
D13F	1.99

Variant	protein stability index
D13H	2.08
D13Q	1.94
D13N	1.89
D14Q	2.35
D14I	1.23
D14R	1.93
D14E	1.95
D14Y	1.48
D14K	2.35
D14T	2.38
D14A	2.05
D14G	2.78
D14C	1.56
D14H	2.32
D14S	2.63
D14L	1.64
D14V	2.19
D14F	1.75
D14W	1.68
D14M	2.45
D14N	1.54
